In patent US20240424125A1 (Zymeworks, published 2024):

Assays:
human FRα on cells [1] = target: T1, human FRα on cells (human, UniProt P15328 25-234); assay: apparent Kd, flow cytometry on HEC-1-A cells (endogenous FRα), 24 h at 4°C
T1 construct: Transiently expressed on HEK293-6e, CHO-S or HEK293 microarray cells, or endogenous on JEG-3, HEC-1-A, IGROV-1, OVCAR-3, H2110, KB-HeLa and T-47D cells; also called human folate receptor alpha; FOLR1
Protocol: Briefly, cells were seeded at 50,000 cells/well in V-bottom 96-well plates and treated with antibody for 24 hours at 4° C. to prevent internalization. […] Following incubation and washing, fluorescence was detected by flow cytometry on a BD LSRFortessa™ Cell Analyzer (BD Biosciences, Franklin Lake, NJ) with 1,000 minimum events collected per well. AF647/APC-A GeoMean (fluorescence signal geometric mean, proportional to anti-Human AF647 binding) in live cell population was plotted using GraphPad Prism Version 9 (GraphPad Software, San Diego, CA).

human FRα on cells [2] = target: T1, human FRα on cells; assay: apparent Kd, flow cytometry, CHO-S cells transiently expressing human FRα, 24 h at 4°C
Protocol: (§1) Briefly, CHO-S cells were transfected for −24 hours to transiently express human or cynomolgus monkey FRα, 1 ug DNA per 1 million cells. Following transfection, cells were seeded at 50,000 cells/well in V-bottom 96-well plates and treated with antibody for 24 hours at 4° C. to prevent internalization. […] Following incubation and washing, fluorescence was detected by flow cytometry on a BD LSRFortessa™ Cell Analyzer (BD Biosciences, Franklin Lake, NJ).

FOLR2 on HEK293-6e cells = target: T2, FOLR2 on HEK293-6e cells (human, UniProt P14207 17-230); assay: flow cytometry on transfected HEK293-6e cells
T2 construct: whole, on cells; also called human folate receptor beta (FOLR2)
Protocol: (§2) FRα, FOLR2 and FOLR4 binding was assessed through flow cytometry using HEK293 transfected cells. FOLR3 binding was assessed through ELISA as FOLR3 is a soluble protein. Control anti-FOLR2 (mouse anti-human FOLR2; Nordic BioSite AB, Taby, Sweden; Cat. No. AFC-4544-2), anti-FOLR3 (mouse anti-human FOLR3; LS Bio, Seattle, WA; Cat. No. LS-C125621) and anti-FOLR4 (mouse anti-His DyLight™ 650; Novus Biologicals, Littleton, CO; Cat. No. NBP2-31055C) antibodies were included in these experiments.
(§3) FRα, FOLR2 and FOLR4 binding: Briefly, HEK293-6e cells were transfected for ˜24 hours to transiently express human FRα (Cat. No. 13420), FOLR2 (Cat. No. 13481) and FOLR4 (Cat. No. 13483) (all from GenScript Biotech, Piscataway, NJ), 1 ug DNA per 1 million cells. Following transfection, 50,000 cells were seeded in V-bottom 96-well plates and incubated with 50 nM primary antibody for 45 min under standard culturing conditions. […] Following incubation and washing, fluorescence was detected by flow cytometry on a BD LSRFortessa™ Cell Analyzer (BD Biosciences, Franklin Lake, NJ) with 1,000 minimum events collected per well.

FOLR4 on HEK293-6e cells = target: T3, FOLR4 on HEK293-6e cells (human, UniProt A6ND01 20-228); assay: flow cytometry on transfected HEK293-6e cells
T3 construct: whole, on cells; also called human folate receptor delta (FOLR4)
Protocol: as §2, §3

[3] = target: T4, FOLR3, commercial purified protein (R&D Systems Cat. No. 5319-FR) (human, UniProt P41439 23-245, limits assumed); assay: ELISA on coated FOLR3 protein
T4 construct: Coated on the ELISA plate; also called folate receptor gamma (FOLR3)
Protocol: FOLR3 binding: ELISA 96-well plate was coated with commercial purified FOLR3 protein (R&D Systems, Inc., Minneapolis, MN; Cat. No. 5319-FR) for 1 hr at 37° C. The plate was blocked with 1% milk in PBS pH 7.4 for 1 hr at RT. Following blocking, primary antibodies were added at 7 nM for 1 hr at RT. […] Plates were developed using tetramethylbenzidine (TMB) and HCl was used to stop reaction. Absorbance was read at 450 nm using a Synergy™ H1 microplate reader (BioTek Instruments, Winooski, VT).

[4] = target: T5, recombinant His-tagged human FRα (ACROBiosystems) (human, UniProt P15328 25-233); assay: SPR (Biacore T200): hFRα amine-coupled to CM5 chip at medium-low antigen density, bivalent FSA injected, 1:1 Langmuir fit, mean of n=2
T5 construct: also called hFRα; hFRα antigen; not shown: His tag
Protocol: (§4) CM5 Series S sensor chip, Biacore™ amine coupling kit (NHS, EDC and 1 M ethanolamine), and 10 mM sodium acetate buffers were purchased from GE Healthcare Life Science (Mississauga, ON, Canada). PBS running buffer with 0.05% Tween20 (PBST) was purchased from Teknova Inc. (Hollister, CA). Recombinant human FRα was purchased from ACRObiosystems (Newark, DE).
(§5) Screening of the variants for binding to hFRα antigen was conducted in two steps: capture of hFRα onto surface, followed by injection of three to five concentrations of variant. The hFRα surface was prepared on a CM5 Series S sensor chip by standard amine coupling methods as described by the manufacturer (GE Healthcare Life Science, Mississauga, ON, Canada). The immobilization of the hFRα was performed using Biacore™ T200 immobilization wizard with an amine coupling method aiming for resonance units (RUs) ranging from 5 to 200 RUs. Using multi-cycle kinetics, three to five concentrations of a two-fold dilution series of samples starting at 300 nM with a blank buffer control were injected at 50 uL/min for 180s with a 600s dissociation phase, resulting in a set of sensorgrams with a buffer blank reference. The hFRα surface was regenerated to prepare for the next injection cycle by one pulse of 10 mM glycine/HCl pH 1.5 for 30s at 30 uL/min. Blank-subtracted sensorgrams were analyzed using Biacore™ T200 Evaluation Software v3.0. The blank-subtracted sensorgrams were then fit to the 1:1 Langmuir binding model.

[5] = target: T6, cynomolgus monkey FRα on cells (cynomolgus monkey, UniProt P15328 29-234 (human entry)); assay: apparent Kd, flow cytometry, CHO-S cells transiently expressing cynomolgus monkey FRα (same experiment as Table 15.1, more digits)
T6 construct: Transiently expressed on CHO-S cells; also called Cyno FRα; cynomolgus FRα
Protocol: as §1

[6] = target: T6, cynomolgus monkey FRα on cells; assay: apparent Kd, flow cytometry, CHO-S cells transiently expressing cynomolgus monkey FRα, 24 h at 4°C
Protocol: as §1

[7] = target: T5, recombinant His-tagged human FRα …; assay: SPR (Biacore T200): hFRα amine-coupled to CM5 chip at high antigen density, bivalent FSA injected, 1:1 Langmuir fit, mean of n=2
Protocol: as §4, §5

T1 sequence (P15328 25-234 limits assumed): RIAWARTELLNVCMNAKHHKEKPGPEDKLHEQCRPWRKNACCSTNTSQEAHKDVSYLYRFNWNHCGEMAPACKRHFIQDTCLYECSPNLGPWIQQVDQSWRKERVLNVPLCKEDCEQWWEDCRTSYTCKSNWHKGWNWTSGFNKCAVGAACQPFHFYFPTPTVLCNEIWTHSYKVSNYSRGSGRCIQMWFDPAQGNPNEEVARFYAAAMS
T5 sequence (P15328 25-233 limits assumed): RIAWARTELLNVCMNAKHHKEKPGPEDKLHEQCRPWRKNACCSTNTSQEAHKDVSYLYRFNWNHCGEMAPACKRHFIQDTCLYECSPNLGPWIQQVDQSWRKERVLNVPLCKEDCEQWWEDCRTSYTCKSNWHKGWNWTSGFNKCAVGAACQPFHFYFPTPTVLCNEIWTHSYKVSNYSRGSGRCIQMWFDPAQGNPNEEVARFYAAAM
T6 sequence (P15328 other isoform, or with tags, fused parts or gaps limits assumed): as the sequence (P15328 25-234 limits assumed) above, with I2T, A3T, W4R, R37K, A146P, H171Y counted along it
T2 sequence (P14207 17-230): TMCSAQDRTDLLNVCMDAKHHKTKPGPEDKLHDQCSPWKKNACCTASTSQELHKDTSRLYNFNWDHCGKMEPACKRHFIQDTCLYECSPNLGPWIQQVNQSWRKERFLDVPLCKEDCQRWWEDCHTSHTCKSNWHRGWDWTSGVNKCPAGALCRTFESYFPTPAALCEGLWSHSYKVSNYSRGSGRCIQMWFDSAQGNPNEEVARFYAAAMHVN
T3 sequence (A6ND01 20-228): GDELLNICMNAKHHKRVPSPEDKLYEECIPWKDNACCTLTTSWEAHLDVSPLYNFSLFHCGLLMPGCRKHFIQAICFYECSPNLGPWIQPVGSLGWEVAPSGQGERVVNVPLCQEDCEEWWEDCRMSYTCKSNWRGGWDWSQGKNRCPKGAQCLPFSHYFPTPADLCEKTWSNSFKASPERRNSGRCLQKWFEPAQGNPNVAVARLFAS
T4 sequence (P41439 23-245 limits assumed): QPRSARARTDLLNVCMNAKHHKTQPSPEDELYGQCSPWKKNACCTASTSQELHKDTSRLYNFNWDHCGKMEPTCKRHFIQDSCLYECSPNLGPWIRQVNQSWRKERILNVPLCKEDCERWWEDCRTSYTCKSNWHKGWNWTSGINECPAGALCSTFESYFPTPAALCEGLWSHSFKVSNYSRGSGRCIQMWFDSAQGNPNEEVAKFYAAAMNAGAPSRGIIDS

B1: v23924 (antibody, human IgG1, kappa, V domains shown)
VH: QSVKESEGGLFKPTDTLTLTCTVSGFSLSSYGVSWVRQAPGNGLEWIGAVNSGGSAYYANWAKSRSTITRNTNLFTVTLKMTSLAVADTATYFCARSGSGYPMDYLAIWGPGTLVTVSS
VL: AYDMTQTPASVEVAVGGTVTIKCQASQSIGDWLAWYQQKPGQPPRLLIYEASTLASGVPSRFSGSGSGTQFTLTISGVECADAATYYCQQGYGRSNVDNIFGGGTEVVVKR
notes: Rabbit-human chimeric full-size antibody, human IgG1/kappa, HomoFc; also called variant v23924; parental chimeric anti-FRα antibody
In the case of B1, the Kd (human FRα on cells [1]) is reported as 50 pM, the Kd (human FRα on cells [2]) is reported as 80 pM and the binding result (FOLR2 on HEK293-6e cells) is reported as “no binding (tested: 50 nM)”. For the same binder, the binding result (FOLR4 on HEK293-6e cells) was “no binding (tested: 50 nM)”, the binding result [3] was “no binding (tested: 7 nM)” and the Kd [4] was 2290 pM. The Kd [5] was 122 pM, the Kd [6] was 120 pM and the Kd [7] was 278 pM.
